Columns and labels:
[1] = conditions where Aβ(1-42) readily forms fibrils; Tjernberg et al. 1996, 1999; cited from earlier work
Aβ(1-40) [2] = biological target: T1, Aβ(1-40) (Homo sapiens, UniProt P05067); experiment: Time-dependent aggregation of Aβ(1-40), amount left in solution after 20,000 xg centrifugation; type: biochemical; conditions: in the presence of the peptide; Aβ(1-40) left in solution after 20,000 xg centrifugation
T1 construct: purchased Research Genetics, Huntsville, Ala., USA; host or cells: chemical synthesis
Excerpt: The effects of the peptides KAD, AAA, and KFFE (SEQ ID NO:1) on the time-dependent aggregation of Aβ(1-40), determined as the amount of Aβ(1-40) left in solution after 20,000 xg centrifugation, were studied. In the presence of AAA, Aβ(1-40) completely aggregated in 10-15 days. In the presence of KAD, Aβ(1-40) completely aggregated in 30-40 days. In the presence of KFFE (SEQ ID NO:1), Aβ(1-40) completely aggregated in about 3 days (FIG. 8).

Aβ(14-23) = biological target: T2, Aβ(14-23) (Homo sapiens, UniProt P05067); experiment: Fibril formation by Aβ(14-23) with tripeptide or tetrapeptide ligand, electron microscopy; type: biochemical; conditions: for density of Aβ(14-23) fibrils (fibril formation): 100 μM Aβ(14-23), 1 mM ligand peptide, three days at 37° C., PBS pH 7.4, electron microscopy, semi quantitative; for reduction of Aβ fibrillation or aggregation: summary statement, Aβ peptide not specified (FIG. 7: Aβ(14-23))
T2 construct: 12-24. and 14-23 were purchased from Research Genetics; purchased Research Genetics, Huntsville, Ala., USA; host or cells: chemical synthesis
Protocol: (§1) Synthetic peptides corresponding to human Aβ fragments 1-40 (amino acid sequence […]; SEQ ID NO:3), 12-24. and 14-23 were purchased from Research Genetics, Huntsville, Ala., USA. Aβ(1-40) was purified by reverse-phase HPLC over a C18 column, using a linear gradient of acetonitrile running into 0.1% trifluoroacetic acid for elution. The purified peptide was lyophilized, stored at −20° C. and dissolved shortly before experiments. The tripeptides and tetrapeptides were synthesized and purified by reverse-phase HPLC (>70% purity) by Interactiva, Darmstadt, Germany
(§2) The relative abundance and morphology of fibrils was determined by electron microscopy after incubating each of the three Aβ peptides (100 μM) for three days at 37° C. in phosphate buffered saline (50 mM sodium phosphate/150 mM NaCl, pH 7.4) in the presence of 1 mM of a specific tripeptide or tetrapeptide ligand. Aggregates were collected by centrifugation at 20,000×g for 20 minutes. The pellets were suspended in a small volume of water by low-energy sonication for 5 seconds. Aliquots of 8 μl were placed on electron microscopy grids covered by a carbon-stabilized formvar film. Excess fluid was withdrawn after 30 seconds, and after air-drying the grids were negatively stained with 2% uranyl acetate in water. The stained grids were examined and photographed in a Philips CM120TWIN electron microscope operated at 80 kV. For a semi quantitative evaluation of the amount of material in the different specimens, the grids (50 mesh) were first scanned at low magnification and the number of larger fibril bundles per grid square estimated. The specimens were subsequently examined at high magnification to judge the size of the fibril bundles, the presence of smaller fibril aggregates, and the morphology of the individual fibrils.

[3] = Fibril formation of proteins with long discordant helices, electron microscopy of 20,000×g pellets; type: physicochemical; conditions: 10 μM to 100 μM in phosphate buffered saline pH 7.4, 37° C., three days
Excerpt: The proteins used in these experiments included SP-C (lung SP-C forms amyloid in pulmonary alveolar proteinosis) purified from porcine lungs (Curstedt et al, 1987, Eur. J. Biochem. 168:255-262). PolyVal→polyLeu substituted SP-C (SP-C(Leu)) analogue was synthesized as described by Nilsson et al. (1998, Eur. J. Biochem, 255:116-124) was used in the experiments as was D-analyl-D-alanine transpeptidase from Streptomyces R61 was obtained from Drs. Frére and Joris, University of Liege, Belgium (Frere et al, 1973, Biochem. J. 135:463-468). Triacylglycerol lipase from Candida antarctica and human coagulation factor XIII were purchased from Sigma. For these fibrillation studies the latter three proteins were dissolved in phosphate buffered saline, pH 7.4, in concentrations ranging from 10 μM to 100 μM. SP—C and SP-C (Leu) were dissolved at 100 μM or 250 μM in chloroform/methanol/0.1 M HCl, 32:64:5 (by volume).
To assay for the formation of fibrils, the protein solutions were incubated at 37° C. for three days, then centrifuged at 20,000×g for 20 minutes. The concentrations of SP-C and SP-C(Leu) in the supernatants were determined by amino acid analysis of triplicate samples. Peptide concentration at start of the incubations was 250 μM for SP-C(Leu) and 100 μM for SP-C. […]

Aβ(1-40) [4] = biological target: T1, Aβ(1-40); experiment: Fibril formation by Aβ(1-40) with tripeptide ligand, electron microscopy; type: biochemical; conditions: 100 μM Aβ(1-40), 1 mM ligand peptide, three days at 37° C., PBS pH 7.4, electron microscopy, semi quantitative
Protocol: as §1, §2

Aβ(12-24) = biological target: T3, Aβ(12-24) (Homo sapiens, UniProt P05067); experiment: Fibril formation by Aβ(12-24) with tripeptide ligand, electron microscopy; type: biochemical; conditions: 100 μM Aβ(12-24), 1 mM ligand peptide, three days at 37° C., PBS pH 7.4, electron microscopy, semi quantitative
T3 construct: 12-24. and 14-23 were purchased from Research Genetics; purchased Research Genetics, Huntsville, Ala., USA; host or cells: chemical synthesis
Protocol: as §1
as §2, with “Excess fluid was withdrawn after 30 seconds, and after air-drying the grids were negatively stained with 2% uranyl acetate in water. The stained grids were examined and photographed in a Philips CM120TWIN electron microscope operated at 80 kV.” left out, “The specimens were subsequently examined at high magnification to judge the size of the fibril bundles, the presence of smaller fibril aggregates, and the morphology of the individual fibrils.” left out

Aβ(1-40) [5] = biological target: T1, Aβ(1-40); experiment: Fibril morphology of Aβ(1-40) in the presence of peptides, electron microscopy; type: biochemical; conditions: in the presence of the peptide, compared with AAA or acetyl-AAA-amide
Protocol: as §2

T1 sequence (P05067 672-711): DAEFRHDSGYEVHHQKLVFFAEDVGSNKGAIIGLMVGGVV

| Substance | time until Aβ(1-40) completely aggregated (Aβ(1-40) [2]) | density of Aβ(14-23) fibrils (fibril formation) (Aβ(14-23)) | density of Aβ(1-40) fibrils (fibril formation) (Aβ(1-40) [4]) | other results |
| --- | --- | --- | --- | --- |
| Aβ(1-28) with alanine substitutions at positions 16, 17, and 20: Aβ(1-28) variant K16A, L17A, F20A (DAEFRHDSGYEVHHQAAVFAAEDVGSNK; Amyloid-beta protein 42; UniProt P05067 672-699, looked up, variant K16A L17A F20A) |  |  |  | fibril formation of the Aβ analogue itself [1]: does not form fibrils |
| KFFE (Synthetically generated peptide) [dipolar tetrapeptide KFFE] | about 3 days | slightly promote fibril formation |  | reduction of Aβ fibrillation or aggregation (Aβ(14-23)): did not reduce |
| KAAE (Synthetically generated peptide) [dipolar tetrapeptide KAAE] |  |  |  | reduction of Aβ fibrillation or aggregation (Aβ(14-23)): did not reduce |
| coagulation factor XIII: human coagulation factor XIII, purchased from Sigma |  |  |  | fibril formation of the protein itself [3]: form fibrils |
| acetyl-AAA-amide |  |  | no significant effect |  |
| unsubstituted Aβ(1-28): positions 1-28 of human Aβ |  |  |  | fibril formation of the Aβ analogue itself [1]: forms fibrils |
| AAA | 10 to 15 days |  | no significant effect |  |
| KFD [dipolar tripeptide, central Ala of KAD replaced with Phe] |  | reduced Aβ(14-23) fibril formation, but to a lesser extent than KAD |  |  |
| KAD | 30 to 40 days | significant reduction of fibril density | significant reduction of fibril density | density of Aβ(12-24) fibrils (fibril formation) (Aβ(12-24)): significant reduction of fibril density; morphology of Aβ(1-40) fibrillar structures (Aβ(1-40) [5]): much shorter and more dispersed |
| acetyl-KAD-amide (Ac-Lys-Ala-Asp-NH2) |  |  | equally efficient in reducing Aβ(1-40) fibril formation as the KAD peptide with free termini | morphology of Aβ(1-40) fibrillar structures (Aβ(1-40) [5]): much shorter and more dispersed |

Source: patent publication US9580460B2, “Discordant helix stabilization for prevention of amyloid formation” (AlphaBeta AB, priority 2000, dated 2017)
